1 substance from PMC3068246 can be followed below.

pKd: −log10 of the molar value.

The assay deals with cis GFP: loop:s11 (light-activated truncated GFP with the 11th β-strand removed, chromophore in the cis configuration). Put plainly: absorbance spectroscopy.

With “s11, synthetic peptide corresponding to strand 11 of GFP”, the pKd was > 12.00.

In general, pKd refers to the Kd on a negative log10 scale, so that one unit is a factor of ten. The low end stands for a large Kd, the high end for a small Kd.
